Sequences and labels used below:
B1: [N-terminal(C18 diacid-gGlu-2xOEG), des1, 4G, 9V, 15Q, 21Q, 23Y, 30S, 31G, 32T, 33Y]mimylin (peptide)
peptide: {C18 diacid-γGlu-AEEA-AEEA}-ASGLSTAVLGRLSQELHELQTYPRTETGSGTY-NH2
SMILES: CC(C)C[C@H](NC(=O)CNC(=O)[C@H](CO)NC(=O)[C@H](C)NC(=O)COCCOCCNC(=O)COCCOCCNC(=O)CC[C@H](NC(=O)CCCCCCCCCCCCCCCCC(=O)O)C(=O)O)C(=O)N[C@@H](CO)C(=O)N[C@H](C(=O)N[C@@H](C)C(=O)N[C@H](C(=O)N[C@@H](CC(C)C)C(=O)NCC(=O)N[C@@H](CCCNC(=N)N)C(=O)N[C@@H](CC(C)C)C(=O)N[C@@H](CO)C(=O)N[C@@H](CCC(N)=O)C(=O)N[C@@H](CCC(=O)O)C(=O)N[C@@H](CC(C)C)C(=O)N[C@@H](Cc1c[nH]cn1)C(=O)N[C@@H](CCC(=O)O)C(=O)N[C@@H](CC(C)C)C(=O)N[C@@H](CCC(N)=O)C(=O)N[C@H](C(=O)N[C@@H](Cc1ccc(O)cc1)C(=O)N1CCC[C@H]1C(=O)N[C@@H](CCCNC(=N)N)C(=O)N[C@H](C(=O)N[C@@H](CCC(=O)O)C(=O)N[C@H](C(=O)NCC(=O)N[C@@H](CO)C(=O)NCC(=O)N[C@H](C(=O)N[C@@H](Cc1ccc(O)cc1)C(N)=O)[C@@H](C)O)[C@@H](C)O)[C@@H](C)O)[C@@H](C)O)C(C)C)[C@@H](C)O
notes: mimylin derivative; des1 = residue 1 deleted; also called Ex. #121; 121
B2: [N-terminal(C20 diacid-gGlu-2xOEG), des1, 30S, 31G]mimylin (peptide)
peptide: {C20 diacid-γGlu-AEEA-AEEA}-ASELSTAALGRLSAELHELATLPRTETGSGSP-NH2
notes: mimylin derivative; des1 = residue 1 deleted; also called Ex. #42; 42
B3: [N-terminal(C20 diacid-gGlu), des1, 4Q, 9V, 15Q, 16R, 19R, 21Q, 23Y, 27Q, 30S, 31Q, 32T, 33Y]mimylin (peptide)
peptide: {C20 diacid-γGlu}-ASQLSTAVLGRLSQRLHRLQTYPRTQTGSQTY-NH2
SMILES: CC(C)C[C@H](NC(=O)[C@H](CCCNC(=N)N)NC(=O)CNC(=O)[C@H](CC(C)C)NC(=O)[C@@H](NC(=O)[C@H](C)NC(=O)[C@@H](NC(=O)[C@H](CO)NC(=O)[C@H](CC(C)C)NC(=O)[C@H](CCC(N)=O)NC(=O)[C@H](CO)NC(=O)[C@H](C)NC(=O)CC[C@H](NC(=O)CCCCCCCCCCCCCCCCCCC(=O)O)C(=O)O)[C@@H](C)O)C(C)C)C(=O)N[C@@H](CO)C(=O)N[C@@H](CCC(N)=O)C(=O)N[C@@H](CCCNC(=N)N)C(=O)N[C@@H](CC(C)C)C(=O)N[C@@H](Cc1c[nH]cn1)C(=O)N[C@@H](CCCNC(=N)N)C(=O)N[C@@H](CC(C)C)C(=O)N[C@@H](CCC(N)=O)C(=O)N[C@H](C(=O)N[C@@H](Cc1ccc(O)cc1)C(=O)N1CCC[C@H]1C(=O)N[C@@H](CCCNC(=N)N)C(=O)N[C@H](C(=O)N[C@@H](CCC(N)=O)C(=O)N[C@H](C(=O)NCC(=O)N[C@@H](CO)C(=O)N[C@@H](CCC(N)=O)C(=O)N[C@H](C(=O)N[C@@H](Cc1ccc(O)cc1)C(N)=O)[C@@H](C)O)[C@@H](C)O)[C@@H](C)O)[C@@H](C)O
notes: mimylin derivative; des1 = residue 1 deleted; also called Ex. #132; 132
B4: [N-terminal(C20 diacid-gGlu), des1, 9V, 15Q, 21Q, 23Y, 30S, 31G, 32T, 33Y]mimylin (peptide)
peptide: {C20 diacid-γGlu}-ASELSTAVLGRLSQELHELQTYPRTETGSGTY-NH2
SMILES: CC(C)C[C@H](NC(=O)[C@H](CCCNC(=N)N)NC(=O)CNC(=O)[C@H](CC(C)C)NC(=O)[C@@H](NC(=O)[C@H](C)NC(=O)[C@@H](NC(=O)[C@H](CO)NC(=O)[C@H](CC(C)C)NC(=O)[C@H](CCC(=O)O)NC(=O)[C@H](CO)NC(=O)[C@H](C)NC(=O)CC[C@H](NC(=O)CCCCCCCCCCCCCCCCCCC(=O)O)C(=O)O)[C@@H](C)O)C(C)C)C(=O)N[C@@H](CO)C(=O)N[C@@H](CCC(N)=O)C(=O)N[C@@H](CCC(=O)O)C(=O)N[C@@H](CC(C)C)C(=O)N[C@@H](Cc1c[nH]cn1)C(=O)N[C@@H](CCC(=O)O)C(=O)N[C@@H](CC(C)C)C(=O)N[C@@H](CCC(N)=O)C(=O)N[C@H](C(=O)N[C@@H](Cc1ccc(O)cc1)C(=O)N1CCC[C@H]1C(=O)N[C@@H](CCCNC(=N)N)C(=O)N[C@H](C(=O)N[C@@H](CCC(=O)O)C(=O)N[C@H](C(=O)NCC(=O)N[C@@H](CO)C(=O)NCC(=O)N[C@H](C(=O)N[C@@H](Cc1ccc(O)cc1)C(N)=O)[C@@H](C)O)[C@@H](C)O)[C@@H](C)O)[C@@H](C)O
notes: mimylin derivative; des1 = residue 1 deleted

Numbered stars: 1 amine (or outer) side, 2 acyl side, 3 side chain; on linkers, the order of the positions; unused ones are H or OH. * marks the point of attachment. C20 diacid = O=C(O)CCCCCCCCCCCCCCCCCCC(=O)*; C18 diacid = O=C(O)CCCCCCCCCCCCCCCCC(=O)*; γGlu = O=C(O)[C@H](CCC(=O)[*:2])N[*:1]; AEEA = NCCOCCOCC(=O)O

One assay deals with T1, human amylin receptor (amylin 3(a) receptor: human calcitonin receptor with RAMP-3) (human, UniProt P30988 25-474; O60896 24-148, limits assumed).
T1 construct: whole, on cells; Assay V: membranes of the Amylin 3(a)/CRE-luc BHK cells on SPA beads; also called hAmylin-R
T1 sequence (looked up) 1: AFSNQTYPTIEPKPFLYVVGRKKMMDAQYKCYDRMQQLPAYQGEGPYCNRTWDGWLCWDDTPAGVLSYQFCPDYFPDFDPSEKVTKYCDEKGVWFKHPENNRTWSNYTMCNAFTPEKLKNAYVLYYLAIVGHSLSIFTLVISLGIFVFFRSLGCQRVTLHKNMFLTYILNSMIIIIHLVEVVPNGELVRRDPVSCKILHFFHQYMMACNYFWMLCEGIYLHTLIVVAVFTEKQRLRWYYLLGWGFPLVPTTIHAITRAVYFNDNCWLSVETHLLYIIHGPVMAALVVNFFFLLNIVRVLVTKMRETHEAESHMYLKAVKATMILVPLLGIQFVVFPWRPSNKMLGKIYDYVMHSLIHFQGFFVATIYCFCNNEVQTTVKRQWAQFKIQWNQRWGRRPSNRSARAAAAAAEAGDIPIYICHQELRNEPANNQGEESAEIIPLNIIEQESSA
T1 sequence (looked up) 2: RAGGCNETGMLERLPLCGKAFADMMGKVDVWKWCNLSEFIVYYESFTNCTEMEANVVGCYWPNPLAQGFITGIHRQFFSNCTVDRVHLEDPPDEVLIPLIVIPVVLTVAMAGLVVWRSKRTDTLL
The assay can be described thus: SPA competition vs 125I-rat amylin, membranes with human CTR + RAMP-3 (Assay V).
B1: the IC50 was 0.371 nM.

Regarding B2, the IC50 was 0.159 nM.

As to B3, the IC50 was 0.39 nM.

As for B4, the IC50 amounted to 0.297 nM.

A further assay addresses T2, human calcitonin receptor (human, UniProt P30988 25-474).
T2 construct: whole, on cells; Assay VII: membranes on SPA beads; also called hCT-R; hCTR
T2 sequence (looked up): T1 sequence (looked up) 1
The assay can be described thus: SPA competition vs 125I-calcitonin, membranes with human CTR (Assay VII). A digest of the protocol: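 SPA competition on membranes from BHK tk'ts 13 cells stably expressing human calcitonin receptor plus CRE-luciferase reporter; membranes 35 ng/μL final with 0.05 mg/well beads.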
Consider B1, for which the IC50 amounted to 0.12 nM.

Take B2: the IC50 is 0.05 nM.

As to B3, the IC50 stood at 0.131 nM.

For the molecule B4, the IC50 was 0.085 nM.

For orientation: IC50 means the concentration that inhibits the measured activity by half.

The record behind these values is US20160272683A1 (Novo Nordisk, published 2016).
